The target of the assay is T1, BRCA1-associated protein 1 (BAP1), full-length human (residues 1 to 729) (human, UniProt Q92560 1-729).
T1 sequence: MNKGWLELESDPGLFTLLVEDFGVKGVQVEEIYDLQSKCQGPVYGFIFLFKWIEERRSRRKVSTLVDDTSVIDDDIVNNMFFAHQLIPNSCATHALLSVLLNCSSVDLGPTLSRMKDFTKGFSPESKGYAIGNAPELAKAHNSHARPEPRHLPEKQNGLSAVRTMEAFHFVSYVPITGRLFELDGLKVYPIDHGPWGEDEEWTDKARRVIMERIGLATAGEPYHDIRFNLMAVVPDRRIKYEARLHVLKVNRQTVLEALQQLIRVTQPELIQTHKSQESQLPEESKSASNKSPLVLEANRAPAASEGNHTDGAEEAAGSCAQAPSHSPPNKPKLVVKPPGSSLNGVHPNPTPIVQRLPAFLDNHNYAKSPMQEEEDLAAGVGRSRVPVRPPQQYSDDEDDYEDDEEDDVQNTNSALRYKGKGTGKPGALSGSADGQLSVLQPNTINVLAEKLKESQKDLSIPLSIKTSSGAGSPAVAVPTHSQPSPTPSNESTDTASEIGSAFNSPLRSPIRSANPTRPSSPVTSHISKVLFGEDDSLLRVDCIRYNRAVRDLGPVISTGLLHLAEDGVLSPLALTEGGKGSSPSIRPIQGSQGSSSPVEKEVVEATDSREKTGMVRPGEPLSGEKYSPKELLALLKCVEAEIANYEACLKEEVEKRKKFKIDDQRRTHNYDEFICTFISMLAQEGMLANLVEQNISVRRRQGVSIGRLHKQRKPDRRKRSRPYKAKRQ
Description: cryo-EM structure.

B1: Deubiquitinase adaptor domain (DEUBAD) of additional sex comb-like 1 (ASXL1), residues 237 to 390 (domain or fragment)
chain: PATGQMKRNRGEEIDFETPGSILVNTNLRALINSRTFHALPSHFQQQLLFLLPEVDRQVGTDGLLRLSSSALNNEFFTHAAQSWRERLADGEFTHEMQVRIRQEMEKEKKVEQWKEKFFEDYYGQKLGLTKEESLQQNVGQEEAEIKSGLCVPG
On to B1, for which the binding result is “binds”.

Values taken from paper PMC10411902 (Science Advances, 2023).
